Experiment [1] concerns the target T1, human-derived cell death receptor 4, extracellular domain (amino acid residues 1-216), 6xHis tag (human, UniProt O00220 24-239).
T1 construct: extracellular domain; Expressed in E. coli; biotinylated for sorting and flow cytometry; residues 1-216; also called DR4; TRAIL-receptor 1
Put plainly: ELISA, coated target, single binder concentration not given, A405.

For experiment [2], the target named is T2, TNFα, extracellular domain (amino acid residue 1-157), 6xHis tag (human, UniProt P01375 57-233).
T2 construct: extracellular domain; Expressed in E. coli; The printed residues 1-157 seem to count on the soluble form, not on the precursor; also called human TNFα; tumor necrosis factor alpha
The experiment is described as above.

Experiment [3] deals with T3, DcR1 (UniProt O14798 26-221, limits assumed).
T3 sequence (looked up): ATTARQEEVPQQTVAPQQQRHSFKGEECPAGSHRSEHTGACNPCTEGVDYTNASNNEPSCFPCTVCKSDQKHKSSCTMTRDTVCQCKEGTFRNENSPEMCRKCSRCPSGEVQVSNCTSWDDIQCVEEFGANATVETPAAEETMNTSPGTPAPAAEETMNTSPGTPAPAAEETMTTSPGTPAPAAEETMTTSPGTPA
The description is as above.

In experiment [4] the target is T4, DcR2 (UniProt Q9UBN6 56-211, limits assumed).
T4 sequence (looked up): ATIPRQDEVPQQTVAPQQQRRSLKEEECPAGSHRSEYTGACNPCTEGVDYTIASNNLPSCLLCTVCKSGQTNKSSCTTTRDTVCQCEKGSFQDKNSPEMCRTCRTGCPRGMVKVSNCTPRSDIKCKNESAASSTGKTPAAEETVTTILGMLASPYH
The description is as above.

For experiment [5], the target named is T2, TNFα, extracellular domain (amino acid …). Description: ELISA, homo-dimer against monomer. On the technique in general: ELISA stands for enzyme-linked immunosorbent assay.
For experiment [6] the target is unchanged. Put plainly: ELISA, target coated on the plate.
Experiment [7] has the same target. Description: cell-based or functional assay.
Experiment [8] concerns the target T3, DcR1. Put plainly: yeast display, flow cytometry MFI. Background: Flow cytometry measures light scatter and fluorescence of single cells or particles in a stream.
The target in experiment [9] is T4, DcR2. Description: yeast display, flow cytometry MFI.
Experiment [10] concerns the target T2, TNFα, extracellular domain (amino acid …). Description: ELISA, coated target, A405.
The target is the same in experiment [11]. Put plainly: ELISA, coated target, A405. The protocol: (§1) In order to measure the affinity and cross reactivity of the anti-DR4, -DR5 and -TNFα protein scaffold variants based on the Kringle domain structure to the target molecules, an enzyme-linked immunosorbent assay (ELISA) was performed. The target molecules DR4, DR5, TNFα and DcR1, DcR2 were attached to a 96 well EIA/RIA plate (COSTARCorning In., USA) by its reaction at 37° C. for 1 hour, and washed three times with 0.1% PBST (0.1% Tween20, pH 7.4, 137 mM NaCl, 10 mM Phosphate, 2.7 mM KCl, SIGMA-ALDRICH Co., USA) for 10 minutes. The target molecules were attached for 1 hour to a 96 well EIA/RIA plate in 1% PBSB (1% BSA, pH 7.4, 137 mM NaCl, 10 mM Phosphate, 2.7 mM KCl, SIGMA-ALDRICH Co., USA), and then washed three times with 0.1% PBST (0.1% Tween 20, pH 7.4, 137 mM NaCl, 10 mM Phosphate, 2.7 mM KCl, SIGMA-ALDRICH Co., USA) for 10 minutes. Then, the anti-DR4, -DR5 and -TNFα Kringle domain variants were bound, and washed three times with 0.1% PBST for 10 minutes. The anti-DR4, -DR5 and -TNFα Kringle domain variants were primarily bound to mouse-derived anti-c-myc 9e10 mAb (Ig Therapy, Korea), and secondarily bound to alkaline phosphatase (AP)-conjugated anti-mouse mAb (Sigma). Each of the Kringle domain variants was reacted with […] (pNPP, Sigma-aldrich Co., USA) and quantified at an absorbance of 405 nm.
The source holds these as a separate data set.

Experiment [12] shares this target. Put plainly: affinity ELISA, target coated on the plate. The protocol: as §1
In order to analyze the affinities of the Fc-fused anti-DR4, -DR5 and -TNFα Kringle domains to target molecules, the affinities of the Fc-fused anti-DR4, -DR5 and -TNFα Kringle domains to the target molecules were analyzed using ELISA, as described in Example 8.

A further experiment has as its target cell surface DR5 (human, UniProt O14763 56-440). Put plainly: cell-based or functional assay.
Experiment [13] deals with T5, human-derived cell death receptor 5, extracellular domain (amino acid residues 1-130), 6xHis tag (human, UniProt O14763 56-210).
T5 construct: extracellular domain; Expressed in E. coli; biotinylated for sorting and flow cytometry; also called DR5; TRAIL-receptor 2
Put plainly: ELISA, coated DR5, A405.

Experiment [14] addresses T5, human-derived cell death receptor 5, …. Put plainly: ELISA, coated target, A405.
Experiment [15] shares this target. Description: ELISA on coated DR5, KD506 alone, A405.
The target is the same in experiment [16]. Put plainly: ELISA, coated target, A405 [upper panel]. The protocol:
as §1

Another experiment has as its target T6, cell surface DR4 (human, UniProt O00220 24-468).
T6 construct: whole, on cells; also called DR4 on cell surfaces
Description: flow cytometry on BJAB(DR5-/-) cells, MFI.

For experiment [17], the target named is T1, human-derived cell death receptor 4, …. Description: yeast display, flow cytometry MFI [panel KD506].
Experiment [18] has as its target T3, DcR1. Put plainly: yeast display, flow cytometry MFI [panel KD506].
Experiment [19] addresses T4, DcR2. Description: yeast display, flow cytometry MFI [panel KD506].
Experiment [20] concerns the target T5, human-derived cell death receptor 5, …. Description: competitive ELISA on coated DR5, biotinylated KD506 with TRAIL (amount not given), A405.

Like-named read-outs stand apart in the source and are kept apart here.

T2 sequence (P01375 other isoform, or with tags, fused parts or gaps limits assumed): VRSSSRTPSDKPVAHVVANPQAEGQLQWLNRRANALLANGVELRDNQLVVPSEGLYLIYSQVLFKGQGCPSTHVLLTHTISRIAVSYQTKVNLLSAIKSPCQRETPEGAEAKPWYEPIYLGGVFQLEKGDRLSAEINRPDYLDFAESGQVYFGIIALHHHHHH

B1: PgnKD2 (other, human, UniProt P00747 184-262, looked up)
single chain: ECMHCSGENYDGKISKTMSGLECQAWDSQSPHAHGYIPSKFPNKNLKKNYCRNPDRELRPWCFTTDPNKRWELCDIPRC
notes: isolated Kringle domain 2; negative control; also called wild-type plasminogen Kringle domain 2
B1: the binding result (in experiment [1]; in experiment [2]; with DcR1 [3]; with DcR2 [4]) was “no binding” each time.

B2: anti-TNFα KDT26 homo-dimer (designed binder)
chain: CPRDQGNQYDGFRYGTYRGHRCQHWTRDEPHFHGFGHQHKYTYRHKKNYCRNPDARPRPWCFTHRYQNRNELCHQPRCGGGGSGGGGSGGGGSGGGGSCPRDQGNQYDGFRYGTYRGHRCQHWTRDEPHFHGFGHQHKYTYRHKKNYCRNPDARPRPWCFTHRYQNRNELCHQPRC
As to B2, the “fold increase of affinity against the monomer” value in experiment [5] is roughly 10 fold. The affinity value in experiment [6] came out at 8 nM.

B3: KDT26 (designed binder)
chain: CPRDQGNQYDGFRYGTYRGHRCQHWTRDEPHFHGFGHQHKYTYRHKKNYCRNPDARPRPWCFTHRYQNRNELCHQPRC
notes: Soluble monomer from Pichia pastoris; also called KRT26; anti-TNFα Kringle domain variant KDT26; not shown: C-terminal myc tag-6xHis tag of pPICZaA
The term EC50 (read off the curve) denotes the concentration that produces a half-maximal response. For B3, the “IC50 (50% inhibiting concentration) of TNFα-mediated cell death, WEHI 164, MTT assay” value in [7] worked out at 0.78 µM. Also, the binding result with DcR1 [8] and with DcR2 [9] was “no binding” in each case. In addition, the concentration giving a half-maximal response (EC50 (read off the curve)) in experiment [10] and in experiment [11] was roughly 0.08 µM in each case.

B4: KDT26-Fc (Fc fusion)
chain: CPRDQGNQYDGFRYGTYRGHRCQHWTRDEPHFHGFGHQHKYTYRHKKNYCRNPDARPRPWCFTHRYQNRNELCHQPRC
notes: Disulfide-linked dimer from Pichia pastoris; also called KRT26-Fc; Fc-fused anti-TNFα Kringle domain KDT26; not shown: Fc domain region from a hinge of human immunoglobulin G1
Turning to B4, the “IC50 (50% inhibiting concentration) of TNFα-mediated cell death, WEHI 164, MTT assay” value in experiment [7] is 0.0052 µM. Moreover, the affinity in [12] was found to be 3.8 nM.

B5: KD506 (designed binder)
chain: CPEDRGHEYDGDGDKTNRGHGCQYWDQNKPHHHGHRDKDKFKHRIKKNYCRNPDYETGPWCFTNRYRNKNELCHEPRC
notes: Soluble monomer from Pichia pastoris; also called anti-DR5 Kringle domain variant KD506; KR506; not shown: C-terminal myc tag-6xHis tag of pPICZaA
In the case of B5, the “EC50 (a concentration of protein causing a 50% cell death), HL60, MTT assay” value with cell surface DR5 is 0.21 µM. Further, the “EC50 (a concentration of protein causing a 50% cell death), Jurkat, MTT assay” value in the experiment with cell surface DR5 is 0.2 µM. Also, the “EC50 (read off the curve)” value in experiment [13] was roughly 0.3 µM; in experiment [14] it was roughly 0.3 µM; in experiment [15], roughly 0.1 µM; in experiment [16], roughly 0.3 µM; in experiment [20] it was roughly 0.1 µM. Besides, the binding result (with cell surface DR4; in experiment [17]; in the experiment with DcR1 [18]; with DcR2 [19]) was “no binding” each time.

For the origin of these results see patent US20120021993A1 (AJOU UNIVERSITY INDUSTRY ACADEMIC COOPERATION FOUNDATION, published 2012).
